The source of these data is paper PMC3380823.

The target in test [1] is CrPLC C7A mutant (Chlamydomonas reinhardtii). The experiment in a line: SEC; HiLoad 16/60 Superdex 200 prep grade and Superose 12 10/300 GL analytical columns, PBS, 1 ml/min, 4°C, no reducing agent; calibrated with molecular weight standards; 5 to 50 µM on the analytical column; monomer and dimer fractions reloaded. In general terms: SEC sorts molecules by how far they enter the pores of the column.

Test [2] concerns the target recombinant phospholipase C of Chlamydomonas reinhardtii (CrPLC), wild type (Chlamydomonas reinhardtii). The description is as above.

Regarding CrPLC C7A mutant (enzyme), in test [1], the percent of dimerization disrupted is 95%.

Take “recombinant phospholipase C of Chlamydomonas reinhardtii (CrPLC), wild type (enzyme)”: the stoichiometry N in test [2] was found to be 2.

Broadly, the stoichiometry N is a count of units in the complex or per binding partner.
